Reference: PMC12586476, “Molecular mechanism and structural models of protein-mediated copper transfer to the Arabidopsis thaliana ethylene receptor ETR1 at the ER membrane” (Scientific Reports, 2025)

T1: ETR1_GAF^1–316 (truncation of the Arabidopsis thaliana ethylene receptor ETR1 containing the transmembrane … (Arabidopsis thaliana, UniProt P49333 1-316, AlexaFluor 488-NHS (amine-reactive dye) label))
T1 construct: Membrane protein kept in Fos-Choline-14; source: E. coli C41(DE3)∆ompF∆acrAB, membranes solubilized in Fos-Choline-14, purified (Ni-NTA IMAC)
T1 sequence (looked up): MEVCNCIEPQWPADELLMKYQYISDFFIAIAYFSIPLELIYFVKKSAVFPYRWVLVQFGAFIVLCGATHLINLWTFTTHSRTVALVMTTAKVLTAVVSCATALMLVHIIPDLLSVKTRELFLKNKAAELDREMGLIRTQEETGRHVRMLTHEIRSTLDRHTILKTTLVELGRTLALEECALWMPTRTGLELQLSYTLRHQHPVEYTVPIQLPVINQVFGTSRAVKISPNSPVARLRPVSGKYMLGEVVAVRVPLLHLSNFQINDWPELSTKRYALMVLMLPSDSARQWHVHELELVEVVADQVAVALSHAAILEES

T2: Arabidopsis copper chaperone CCH (Arabidopsis thaliana, UniProt O82089 1-121, AlexaFluor 488 label)
T2 construct: Copper chaperone CCH, Arabidopsis thaliana
T2 sequence (looked up): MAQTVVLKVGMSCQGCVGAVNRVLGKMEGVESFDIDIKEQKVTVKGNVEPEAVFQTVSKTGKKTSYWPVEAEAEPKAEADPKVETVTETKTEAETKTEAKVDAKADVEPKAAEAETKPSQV


Tests used:
[1] = target: T1, ETR1_GAF^1–316 (truncation of the …); experiment: MST; AlexaFluor488-labelled ETR1_GAF 50 nM, MBDs titrated 100 µM to 24.4 nM; 300 mM NaCl, 50 mM HEPES pH 7.2 with Fos-Choline-14 and glycerol; room temperature; thermophoresis with T-jump; one-site binding model; apparent KD; settings: both partners purified
[2] = target: Arabidopsis copper transport protein ATX1 (Arabidopsis thaliana); experiment: MST; AlexaFluor488-labelled ATX1 or CCH 100 nM, MBDs titrated (MBD1 300 µM to 0.19 nM, MBD2 100 µM to 0.19 nM, MBD3 100 µM to 0.06 nM); 300 mM NaCl, 50 mM HEPES pH 7.2 with Tween20 and glycerol; room temperature; initial fluorescence analysed; one-site binding model; apparent KD
[3] = target: T2, Arabidopsis copper chaperone CCH; experiment: as above; settings: both partners purified

Row | Binder | Kd [1] | Kd [2] | Kd [3]
1 | RAN1 metal binding domain 2 (MBD2) (domain or fragment, Arabidopsis thaliana, UniProt Q9S7J8 132-207, looked up, Copper-transporting P-type ATPase RAN1 (HMA7), Arabidopsis thaliana, MBD2, AA 132-207; Cloned into pETEV16b (pET-16b derivative with a TEV site); no tag cleavage is described; also called HMA7 MBD2; source: E. coli BL21 Gold (DE3), purified (Ni-NTA IMAC, SEC)) TLVGQFTIGGMTCAACVNSVEGILRDLPGVKRAVVALSTSLGEVEYDPNVINKDDIVNAIEDAGFEGSLVQSNQQD | 22300 ± 12100 nM | 239 nM | 2280 ± 990 nM
2 | RAN1 degenerate metal binding domain 3 (MBD3) (domain or fragment, Arabidopsis thaliana, UniProt Q9S7J8 205-283, looked up, Copper-transporting P-type ATPase RAN1 (HMA7), Arabidopsis thaliana, MBD3, AA 205-283; Cloned into pETEV16b; also called HMA7 MBD3; source: E. coli BL21 Gold (DE3), purified (Ni-NTA IMAC, SEC); not shown: His tag (deca-histidine), N-terminal, kept) QQDKLVLRVDGILNELDAQVLEGILTRLNGVRQFRLDRISGELEVVFDPEVVSSRSLVDGIEEDGFGKFKLRVMSPYER | 8300 ± 6600 nM | 105 nM | 88.5 ± 78.2 nM
3 | RAN1 metal binding domain 1 (MBD1) (domain or fragment, Arabidopsis thaliana, UniProt Q9S7J8 55-130, looked up, Copper-transporting P-type ATPase RAN1 (HMA7), Arabidopsis thaliana, MBD1, AA 55-130; Cloned into pETEV16b (pET-16b derivative with a TEV site); no tag cleavage is described; also called HMA7 MBD1; source: E. coli BL21 Gold (DE3), purified (Ni-NTA IMAC, SEC)) LRKIQVGVTGMTCAACSNSVEAALMNVNGVFKASVALLQNRADVVFDPNLVKEEDIKEAIEDAGFEAEILAEEQTQ | 13300 ± 4400 nM | 155 nM | 3160 ± 684 nM
